{
  "source": "paper PMC2447174",
  "about": "“A Cytoplasmic Domain Mutation in ClC-Kb Affects Long-Distance Communication Across the Membrane” (PLoS ONE, 2008)",
  "key": {"[1]": {"target": "the molecule itself", "experiment": "SEC-MALS; Shodex PROTEIN KW-802.5 column, 200 mM NaCl, 20 mM Tris-Cl pH 7.5, protein at 1 mg/mL, room temperature (23°C); self-association, dimer"}, "[2]": {"target": "the molecule itself", "experiment": "SEC-MALS; data not shown; 'monodispersed dimers, as observed with wild-type'; method taken from the wild-type experiment"}, "[3]": {"target": "the molecule itself", "experiment": "cross-linking; spontaneous disulfide cross-linking of introduced cysteines in purified KbC in TBS7.5 (200 mM NaCl, 10 mM Tris pH 7.5, 5 mM ß-mercaptoethanol); SDS-PAGE in reducing (250 mM ß-mercaptoethanol) and oxidizing conditions"}},
  "data": [
    {"protein": "ClC-Kb C-terminal domain (domain or fragment, human, UniProt P51801 538-684, looked up, ClC-Kb chloride channel, human, C-terminal cytoplasmic domain, amino acids 538-684; read here as KbC following MBP; MBP was removed with Factor Xa and washed away on the cation-exchange column; also called ClC-Kb cytoplasmic domain; ClC-Kb C-terminal cytoplasmic domain; source: E. coli, purified (amylose column, Factor Xa digestion, cation exchange); not shown: MBP, N-terminal, cleaved) RNIGSHRVRVEHFMNHSITTLAKDMPLEEVVKVVTSTDVAKYPLVESTESQILVGIVRRAQLVQALKAEPPSWAPGHQQCLQDILAAGCPTEPVTLKLSPETSLHEAHNLFELLNLHSLFVTSRGRAVGCVSWVEMKKAISNLTNPP", "values": [
      {"measurement": "stoichiometry N", "setting": "[1]", "result": 2}
    ]},
    {"protein": "ClC-Kb C-terminal domain double mutant L603C-H645C (domain or fragment, human, UniProt P51801 538-684, looked up, ClC-Kb chloride channel, human, C-terminal cytoplasmic domain, amino acids 538-684, L603C and H645C; also called 603-645 cysteine double mutant; source: E. coli, purified (amylose column, Factor Xa digestion, cation exchange); not shown: MBP, N-terminal, cleaved) RNIGSHRVRVEHFMNHSITTLAKDMPLEEVVKVVTSTDVAKYPLVESTESQILVGIVRRAQLVQACKAEPPSWAPGHQQCLQDILAAGCPTEPVTLKLSPETSLHEACNLFELLNLHSLFVTSRGRAVGCVSWVEMKKAISNLTNPP", "values": [
      {"measurement": "stoichiometry N", "setting": "[2]", "result": 2}
    ]},
    {"protein": "ClC-Kb C-terminal domain with the L650C mutation (domain or fragment, human, UniProt P51801 538-684, looked up, ClC-Kb chloride channel, human, C-terminal cytoplasmic domain, amino acids 538-684, L650C; also called ClC-Kb-L650C; L650C mutant; source: E. coli, purified (amylose column, Factor Xa digestion, cation exchange); not shown: MBP, N-terminal, cleaved) RNIGSHRVRVEHFMNHSITTLAKDMPLEEVVKVVTSTDVAKYPLVESTESQILVGIVRRAQLVQALKAEPPSWAPGHQQCLQDILAAGCPTEPVTLKLSPETSLHEAHNLFECLNLHSLFVTSRGRAVGCVSWVEMKKAISNLTNPP", "values": [
      {"measurement": "binding result", "setting": "[3]", "result": "binds"}
    ]},
    {"protein": "ClC-Kb C-terminal domain double mutant K604C-A644C (domain or fragment, human, UniProt P51801 538-684, looked up, ClC-Kb chloride channel, human, C-terminal cytoplasmic domain, amino acids 538-684, K604C and A644C; also called 604-644 cysteine double mutant; source: E. coli, purified (amylose column, Factor Xa digestion, cation exchange); not shown: MBP, N-terminal, cleaved) RNIGSHRVRVEHFMNHSITTLAKDMPLEEVVKVVTSTDVAKYPLVESTESQILVGIVRRAQLVQALCAEPPSWAPGHQQCLQDILAAGCPTEPVTLKLSPETSLHECHNLFELLNLHSLFVTSRGRAVGCVSWVEMKKAISNLTNPP", "values": [
      {"measurement": "stoichiometry N", "setting": "[2]", "result": 2}
    ]}
  ]
}
